According to patent US20020137087, “2'-fluoropyrimidine anti-calf intestinal phosphatase nucleic acid ligands” (published 2002):
Where a chain is given by its changes, count along the chain named.

B1: DD-172-2-4 (group B) (ssRNA)
RNA: GGGAGACAAGAAUAAACGCUCAACGCCAGGCCCUUAUCAAGCGCGGAACGCACGACCCGUCUUUCGACAGGAGGCUCACAACAGGC
modifications: all pyrimidines 2'-F
B2: DD-172-2-20 (group B) (ssRNA)
RNA: B1 RNA with C53U
modifications: all pyrimidines 2'-F
B3: DD-172-2-9 (group A) (ssRNA)
RNA: GGGAGACAAGAAUAAACGCUCAACACAAAACAAAAUAACCUUAGCCUCGGUGCUCUACGCAAUUCGACAGGAGGCUCACAACAGGC
modifications: all pyrimidines 2'-F
B4: DD-172-2-17 (group A) (ssRNA)
RNA: GGGAGACAAGAAUAACGCUCAAACACAAAACAAAAUAACUUGGCCUCGGUGCUCUACGCAAUUCGACAGGAGGCUCACAACAGGC
modifications: all pyrimidines 2'-F

Experiments:
[1] = molecular target: T1, Calf intestinal alkaline phosphatase (CIP) (UniProt P19111 P19111:20-506); assay: streptavidin plate chemiluminescence assay, SHMCK+ buffer pH 7.35, 1 mM CaCl2, 1 mM MgCl2, 37 C; settings: tags: Boehringer Mannheim (Indianapolis, Ind.), 10 mg/ml; chain copies: 2
Method: The affinity of the initial random library and round 8 affinity enriched pool of Example 1 was performed by a plate-based assay using RNA-transcripts biotinylated on the 5′-terminus. Briefly, opaque white 96-well Lumino plates were coated with streptavidin (10 to 20 μg/well). Biotinylated RNA obtained either from the round 8 pool or the random library were added separately to individual wells of a 96-well microtiter plate (approximately 30 fMols RNA per well). After incubating for 1 hour at room temperature, wells were washed three times with […] of SHMCK+buffer. Varying concentrations of CIP, in SHMCK+buffer, were added to the wells and allowed to incubate for 1 hour at 37° C. Wells were washed four times with 200 μl SHMCK+buffer followed by the addition of a 100 μl solution consisting of 0.1 M diethanolamine pH 10, 10% volume/volume Sapphire enhancer solution (Tropix Inc., Bedford, Mass.), […] CSPD (Tropix, Inc.), 1 mM MgCl₂, and 0.02% sodium azide. After a 30 minute incubation, chemiluminescence was measured using a Berthold (Nashua, N.H.) LB 96P luminometer. Luminescence levels were integrated over one second and data were fit to a sigmoidal dose-response curve (variable slope), Y=Bottom+[(Top−Bottom)/1+10^{(Log EC50-X)(Hillslope)}] using GraphPad Prism version 2.01 (GraphPad Software; San Diego, Calif.). […]

[2] = molecular target: T1, Calf intestinal alkaline phosphatase …; assay: streptavidin plate chemiluminescence assay, SHMCK+ buffer, 37 C; settings: tags: Boehringer Mannheim (Indianapolis, Ind.), 10 mg/ml; chain copies: 2
Method: The affinity of the initial random library and round 8 affinity enriched pool of Example 1 was performed by a plate-based assay using RNA-transcripts biotinylated on the 5′-terminus. Briefly, opaque white 96-well Lumino plates were coated with streptavidin (10 to 20 μg/well). Biotinylated RNA obtained either from the round 8 pool or the random library were added separately to individual wells of a 96-well microtiter plate (approximately 30 fMols RNA per well). After incubating for 1 hour at room temperature, wells were washed three times with […] of SHMCK+buffer. Varying concentrations of CIP, in SHMCK+buffer, were added to the wells and allowed to incubate for 1 hour at 37° C. Wells were washed four times with 200 μl SHMCK+buffer followed by the addition of a 100 μl solution consisting of 0.1 M diethanolamine pH 10, 10% volume/volume Sapphire enhancer solution (Tropix Inc., Bedford, Mass.), […] CSPD (Tropix, Inc.), 1 mM MgCl₂, and 0.02% sodium azide. After a 30 minute incubation, chemiluminescence was measured using a Berthold (Nashua, N.H.) LB 96P luminometer. Luminescence levels were integrated over one second and data were fit to a sigmoidal dose-response curve (variable slope), Y=Bottom+[(Top−Bottom)/1+10^{(Log EC50-X)(Hillslope)}] using GraphPad Prism version 2.01 (GraphPad Software; San Diego, Calif.). Each replicate was considered individually and convergence was obtained when two consecutive iterations varied the sum of squares (relative distance of the points from the curve, 1/Y²) by less than 0.01%.

T1 sequence (P19111 20-506, one chain of several): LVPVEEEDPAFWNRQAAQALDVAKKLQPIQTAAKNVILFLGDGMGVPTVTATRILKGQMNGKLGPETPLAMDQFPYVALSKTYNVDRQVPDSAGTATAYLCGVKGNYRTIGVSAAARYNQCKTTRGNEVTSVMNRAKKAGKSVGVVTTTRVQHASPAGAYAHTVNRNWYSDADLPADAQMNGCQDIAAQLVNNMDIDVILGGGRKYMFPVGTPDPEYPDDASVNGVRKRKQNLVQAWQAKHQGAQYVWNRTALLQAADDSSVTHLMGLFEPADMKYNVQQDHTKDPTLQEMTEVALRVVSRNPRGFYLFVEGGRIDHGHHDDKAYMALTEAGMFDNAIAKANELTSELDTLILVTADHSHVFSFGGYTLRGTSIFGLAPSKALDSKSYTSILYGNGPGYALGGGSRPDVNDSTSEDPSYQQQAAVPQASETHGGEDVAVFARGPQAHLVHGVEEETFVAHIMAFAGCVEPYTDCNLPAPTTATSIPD

Binder	Kd [1]	Kd [2]
B1	0.13 nM	–
B2	–	0.26 nM
B3	–	7.8 nM
B4	–	7.2 nM
